One block for each molecule: values may come before it.
Key:
[1] = target: cf-TMD0-His (M1 – P142), cell-free expressed (human) (UniProt Q9NP78); test: SEC-MALS; 400 µg cf-TMD0-His on TSK-GEL G3000SWXL, 4 °C; 25 mM Na acetate, 300 mM NaCl, 0.7% c6-DHPC, pH 5.0; three-detector method (UV, refractive index, light scattering)
[2] = target: cf-TMD0-His S28C, MTSL labeled (human) (UniProt Q9NP78); test: PELDOR (DEER) spectroscopy; MTSL labeled single cysteine cf-TMD0-His in c6-DHPC with 15–20% deuterated glycerol, frozen; Q-band (33.4 GHz), 50 K; modulation depth and distance distribution by Tikhonov regularization
coreTAPLmV = target: T1, coreTAPLmV (Homo sapiens, UniProt Q9NP78); conditions: 3 mM ATP, 3 uM RRYC(fluorescein)KSTEL, 3 mM MgCl2, pH 7.5, 37 °C, 15 min; with cf-TMD0-His co-reconstituted
T1 construct: gene ABCB9

TmrAB = target: T2, TmrAB (Thermus thermophilus, UniProt Q72J04+Q72J05); conditions: 3 mM ATP, 3 uM RRYC(fluorescein)KSTEL, 3 mM MgCl2, pH 7.5, 37 °C, 15 min; with cf-TMD0-His co-reconstituted
T2 construct: gene TT_C0976

[3] = target: cf-TMD0-His S138C, MTSL labeled (human) (UniProt Q9NP78); test: PELDOR (DEER) spectroscopy; MTSL labeled single cysteine cf-TMD0-His in c6-DHPC with 15–20% deuterated glycerol, frozen; Q-band (33.4 GHz), 50 K; modulation depth and distance distribution by Tikhonov regularization

- stoichiometry N [1]: 2
Molecule: cf-TMD0-His (M1 – P142), cell-free expressed (from UniProt Q9NP78 1-142) (domain or fragment)

- stoichiometry N [2]: 2
Molecule: cf-TMD0-His S28C, MTSL labeled (from UniProt Q9NP78 1-142) (domain or fragment)

Molecule: Nc1ncnc2c1ncn2[C@@H]1O[C@H](COP(=O)(O)OP(=O)(O)OP(=O)(O)O)[C@@H](O)[C@H]1O [ATP]
- ATP-dependent peptide transport in proteoliposomes, fluorescence (coreTAPLmV): Functional reconstitution of coreTAPLmV as well as TmrAB into liposomes was demonstrated by ATP-dependent peptide transport
- ATP-dependent peptide transport in proteoliposomes, fluorescence (TmrAB): Functional reconstitution of coreTAPLmV as well as TmrAB into liposomes was demonstrated by ATP-dependent peptide transport

- stoichiometry N [3]: 2
Molecule: cf-TMD0-His S138C, MTSL labeled (from UniProt Q9NP78 1-142) (domain or fragment)

— publication PMC6199259, “Structural and functional insights into the interaction and targeting hub TMD0 of the polypeptide transporter TAPL” (Scientific Reports, 2018)
